Key:
Cyno IL-1β = Cyno IL-1β (cyno, UniProt P79182 117-268); assay: cell-based or functional assay
Human IL-1β [1] = molecular target: T1, Human IL-1β (human, UniProt P01584 117-269); assay: cell-based or functional assay
Human IL-1β [2] = molecular target: T1, Human IL-1β; assay: MSD-SET (solution equilibrium titration, electrochemiluminescence), 37° C., 72 h equilibrium
Protocol: MSD (Meso Scale Discovery) electrochemiluminescence assay is utilized to measure the affinity of Antibody I, Antibody II, and Canakinumab against human IL-1β. First, the equilibrium mixture of antibodies and human IL-1β is set up; in the mixture the antibody, concentrations are kept constant at 1 pM, 10 pM, and 100 pM whereas the ligand is titrated in the concentration ranging from 0.9 nM to 0.00004 nM (2.5 times dilution between concentrations) The equilibrium mixture is set up in sealed non-binding 96-well plate at 37° C. for 72 hours.
MSD Gold Streptavidin plates are used to detect the free antibodies in the equilibrium mixture. The MSD plates are first blocked with blocking buffer (PBS+1% BSA) for 1 hour on a shaker set at 800 rpm and then washed 3 times with washing buffer PBST (PBS ±0.05% Tween 20). The plates are coated with biotinylated human IL-1p followed by 3× washing with PBST. The equilibrium mixtures are added to the coated plate, incubated at room temperature with shaking for 2.5 mins and immediately washed 3× with PBST. The goat anti-human Sulfo-TAG antibody is added to the plate and incubated at room temperature for 1 hour with shaking. After three more washes, MSD Read Buffer at 1:2 concentration diluted in MilliQ water is added to the wells. immediately afterwards, the plates are read using an MSD Sector Imager 516000 instrument.

Cyno IL-1β Inhibition IC50 (HEK-Blue IL-1β reporter cells, 4 pM IL-1β) (Cyno IL-1β): > 10000 pM
Human IL-1β Inhibition IC50 (HEK-Blue IL-1β reporter cells, 4 pM IL-1β) (Human IL-1β [1]): 29.2 pM
Kd (Human IL-1β [2]): 13.1 pM
B1: Canakinumab (antibody, human IgG4 S228P, kappa, F234A L235A, V domains shown)
VH: QVQLVESGGGVVQPGRSLRLSCAASGFTFSVYGMNWVRQAPGKGLEWVAIIWYDGDNQYYADSVKGRFTISRDNSKNTLYLQMNGLRAEDTAVYYCARDLRTGPFDYWGQGTLVTVSS
VL: EIVLTQSPDFQSVTPKEKVTITCRASQSIGSSLHWYQQKPDQSPKLLIKYASQSFSGVPSRFSGSGSGTDFTLTINSLEAEDAAAYYCHQSSSLPFTFGPGTKVDIKR

Source: patent publication US20230057665A1 (Eli Lilly, published 2023)
